These results are taken from doi:10.1101/2023.04.09.536162.

For the experiment, the target named is L-threonine aldolase from Neptunomonas marine (NmLTA), wild type (Neptunomonas marine). Put plainly: crystal structure.

Broadly, the stoichiometry N is a count of units in the complex or per binding partner.

“L-threonine aldolase from Neptunomonas marine (NmLTA), wild type (enzyme)”: the stoichiometry N came out at 4.
